Measured values as given in US20240218070A1 (MERUS N V, published 2024).

Molecular target: T1, human FAP (huFAP) expressed on cells (human, UniProt Q12884 1-760)
T1 construct: also called WI-38 cells
T1 sequence: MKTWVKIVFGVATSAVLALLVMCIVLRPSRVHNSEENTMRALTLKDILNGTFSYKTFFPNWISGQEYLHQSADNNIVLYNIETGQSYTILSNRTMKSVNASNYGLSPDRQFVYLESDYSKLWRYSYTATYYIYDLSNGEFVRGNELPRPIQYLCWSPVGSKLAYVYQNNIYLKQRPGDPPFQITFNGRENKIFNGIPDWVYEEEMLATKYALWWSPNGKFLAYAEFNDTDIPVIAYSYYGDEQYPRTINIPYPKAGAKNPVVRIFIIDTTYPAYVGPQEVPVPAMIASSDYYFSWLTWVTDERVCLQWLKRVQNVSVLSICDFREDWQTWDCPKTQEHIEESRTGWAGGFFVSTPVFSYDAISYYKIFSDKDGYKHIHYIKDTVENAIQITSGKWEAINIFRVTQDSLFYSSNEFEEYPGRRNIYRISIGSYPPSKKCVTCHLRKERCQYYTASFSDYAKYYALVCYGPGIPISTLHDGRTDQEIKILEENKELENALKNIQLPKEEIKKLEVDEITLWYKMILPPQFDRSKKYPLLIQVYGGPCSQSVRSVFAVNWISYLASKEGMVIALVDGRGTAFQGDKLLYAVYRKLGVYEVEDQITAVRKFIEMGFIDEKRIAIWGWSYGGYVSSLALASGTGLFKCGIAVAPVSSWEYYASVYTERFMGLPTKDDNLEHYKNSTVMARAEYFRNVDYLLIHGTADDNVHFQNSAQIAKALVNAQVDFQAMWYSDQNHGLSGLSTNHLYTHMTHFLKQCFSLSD
Experiment: FACS titration (10 ug/ml to 3.16 ng/ml) on WI-38 cells; positive control sibrotuzumab analog
Method: The human anti-FAP panel was tested on WI-38 cells (endogenously expressing huFAP) and binding was measured by FACS.
The target cells were harvested, counted, and centrifuged for 5 min at 300 g at 4° C. Cells were then resuspended in FACS buffer at a concentration of 1×10⁶ cells/ml and transferred (200,000 cells/well) to a U-bottom 96-well FACS plate (BD, cat. #353910). Cells were washed by adding 200 μl PBS and centrifuged for 3 min at 300 g at 4 °C. Cells were then centrifuged for 3 min at 300 g at 4° C. and supernatant was discarded. Antibodies were diluted in an 8 steps, semi-log dilution series ranging from 10 ug/ml to 3.16 ng/ml in FACS buffer (50 μ/well), mixed, and incubated for 30 min at 2-8° C. in the dark. A titration of the sibrotuzumab analog was included as positive control and used to normalize data. The negative control TT antibody was included as negative control. Cells were washed by adding 150 μl FACS buffer and centrifuged for 3 min at 300 g at 4° C. Supernatant was discarded, and cells were washed again by adding 200 μl FACS buffer to the plate. Cells were then centrifuged for 3 min at 300 g at 4° C. and afterwards the supernatant was discarded. […] Fluorescence intensity of the cells was then measured on the iQue VBR (Intellicyt).

B1: anti-human FAP bivalent monospecific IgG comprising heavy chain variable region SEQ ID NO: 19 (antibody, V domains shown)
VH: EVQLVESGGGLVKPGGSLRLSCAASGFPFNYAWMSWVRQAPGKGLEWVGRIKPKTSGGATDYAAPVKDRFTISRDDSRNTLYLQMNSLKTEDTAVYYCSAREDIWNFFFDLWGQGTLVTVSS
VL: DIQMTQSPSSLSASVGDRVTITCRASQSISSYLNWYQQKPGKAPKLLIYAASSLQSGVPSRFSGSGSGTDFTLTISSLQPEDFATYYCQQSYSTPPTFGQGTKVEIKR
notes: IgG1 format, common light chain VK1-39/JK1
binding result: binds
